Laboratory results reported in patent US20230406950A1 (LYVGEN BIOPHARMA, published 2023).
Values belong to the binder of their own block, whether it stands above or below them.

Columns and labels:
[1] = target: T1, human CD137 expressed on cells (human, UniProt Q07011 24-255); assay: FACS on CHO cells expressing human CD137 (MFI)
T1 construct: whole, on cells; also called 4-1BB; TNFRSF9
Description: (§1) Anti-CD40/CD137 bi-specific antibodies were analyzed by FACS for their binding properties to human CD40 and/or human CD137 expressed on CHO cells. Briefly, cultured cells were harvested, counted and cell viability was evaluated using the Trypan Blue exclusion method. Viable cells were then adjusted to 2×10⁶ cells per mL in PBS containing 2% BSA. 100 μL of this cell suspension were further aliquoted per well into a V-bottom 96-well plate. […] After incubation for 2 hours at 4° C., cells were centrifuged (3 min, 1000×g), washed with 250 μL/well BSA-containing FACS Stain Buffer, resuspended and incubated for an additional 1 hour at 4° C. with 100 μL/well fluorochrome-conjugated anti-IgG antibody for detection of the bisepecific antibody. Cells were then washed with 250 μL/well BSA-containing FACS Stain Buffer, resuspended in 100 μL/well FACS Stain Buffer, acquired and analyzed using a FACS machine. Binding of the bispecific antibodies to human CD40 or human CD137 expressing CHO cells were evaluated and the mean fluorescence intensity is plotted in histograms or dot plots.

[2] = target: T2, human CD40 expressed on CHO cells (human, UniProt P25942 21-277); assay: FACS on CHO cells expressing human CD40 (MFI)
T2 construct: whole, on cells
Description: as §1

[3] = target: T1, human CD137 expressed on cells; assay: flow cytometry (FACS), MFI, CHO cells expressing human CD137
In short: (§2)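 Viable CHO cells, 2×10⁶ cells/mL in PBS with 2% BSA, incubated with bispecific antibodies for 2 h at 4° C. Bound antibody detected with fluorochrome-conjugated anti-IgG, 1 h at 4° C. Read-out is mean fluorescence intensity by flow cytometry.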

[4] = target: T3, human PD-1 expressed on cells (human, UniProt Q15116 25-288); assay: flow cytometry (FACS), MFI, CHO cells expressing human PD-1
T3 construct: whole, on cells; also called human PD-1 over-expressed on the CHO cells; Jurkat/NFkB-Luci/PD-1 cells
In short: as §2

[5] = target: T4, human CD137 ECD protein (His tag) (human, UniProt Q07011 24-186); assay: bridging ELISA: human CD137 ECD (His tag) coated, antibody titrated, then human PD-1 ECD (mouse IgG2a Fc tag), HRP anti-mouse IgG2a Fc; A450-A620
T4 construct: extracellular domain; also called recombinant human CD137; not shown: His tag
Description: Exemplary anti-PD-1/CD137 bi-specific antibodies were analyzed by ELISA for their simultaneous binding to recombinant human PD-1 and human CD137. Briefly, human CD137 ECD protein (His tag) was diluted and coated onto an ELISA plate with a volume of 100 μL/well by incubation at 4° C. overnight. The next day, the plate was blocked with PBST-BSA buffer, then serially diluted samples of anti-PD-1/CD137 bi-specific antibodies were pipetted into appropriate wells at 50 μL/well, and the plate was incubated for 1 hour followed by washing. The extracellular domain (ECD) of human PD-1 protein (mouse IgG2a Fc tag) was added into the plate at 50 μL/well. After 1-hour incubation at room temperature, HRP-conjugated anti-Mouse IgG, Fc G2a specific antibody was added into the plate at 100 μL/well. The plate was incubated for 1 hour at room temperature followed by washing. TMB substrate solution was added at 100 μL/well and the color development was stopped by adding 100 uL/well Stop Solution (2N H₂SO₄). Absorbance at 450 nm and 620 nm was read by Tecan F200 Pro plate reader. GraphPad 7.0, “[Agonist] vs. response—Variable slope (four parameters)” was used to plot the binding data and calculate binding EC50 values.

T1 sequence (Q07011 24-255): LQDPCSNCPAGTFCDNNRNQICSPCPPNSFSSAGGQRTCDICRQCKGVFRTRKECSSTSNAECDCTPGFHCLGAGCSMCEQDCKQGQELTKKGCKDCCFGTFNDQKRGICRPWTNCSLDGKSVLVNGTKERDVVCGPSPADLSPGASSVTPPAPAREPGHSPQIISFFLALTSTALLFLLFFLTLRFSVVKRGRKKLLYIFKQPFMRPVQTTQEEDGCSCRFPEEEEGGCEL
T2 sequence (P25942 21-277): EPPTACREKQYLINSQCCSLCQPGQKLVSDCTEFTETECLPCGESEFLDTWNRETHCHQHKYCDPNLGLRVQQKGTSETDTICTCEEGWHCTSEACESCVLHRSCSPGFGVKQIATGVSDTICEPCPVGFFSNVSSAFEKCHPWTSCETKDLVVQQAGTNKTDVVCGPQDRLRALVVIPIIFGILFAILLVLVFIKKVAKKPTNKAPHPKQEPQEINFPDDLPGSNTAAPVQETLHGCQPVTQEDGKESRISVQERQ
T3 sequence (Q15116 25-288): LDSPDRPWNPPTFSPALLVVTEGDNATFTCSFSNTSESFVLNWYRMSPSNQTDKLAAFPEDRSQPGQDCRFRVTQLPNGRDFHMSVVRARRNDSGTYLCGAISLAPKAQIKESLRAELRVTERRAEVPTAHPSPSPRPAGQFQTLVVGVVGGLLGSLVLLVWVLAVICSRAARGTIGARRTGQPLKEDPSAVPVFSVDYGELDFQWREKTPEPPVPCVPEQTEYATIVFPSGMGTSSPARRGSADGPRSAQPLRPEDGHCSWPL

- EC50 (read off the curve) [1]: ~0.1 µg/mL
- binding result [2]: binds
B1: Ly744 (bispecific antibody, human IgG1, kappa)
heavy: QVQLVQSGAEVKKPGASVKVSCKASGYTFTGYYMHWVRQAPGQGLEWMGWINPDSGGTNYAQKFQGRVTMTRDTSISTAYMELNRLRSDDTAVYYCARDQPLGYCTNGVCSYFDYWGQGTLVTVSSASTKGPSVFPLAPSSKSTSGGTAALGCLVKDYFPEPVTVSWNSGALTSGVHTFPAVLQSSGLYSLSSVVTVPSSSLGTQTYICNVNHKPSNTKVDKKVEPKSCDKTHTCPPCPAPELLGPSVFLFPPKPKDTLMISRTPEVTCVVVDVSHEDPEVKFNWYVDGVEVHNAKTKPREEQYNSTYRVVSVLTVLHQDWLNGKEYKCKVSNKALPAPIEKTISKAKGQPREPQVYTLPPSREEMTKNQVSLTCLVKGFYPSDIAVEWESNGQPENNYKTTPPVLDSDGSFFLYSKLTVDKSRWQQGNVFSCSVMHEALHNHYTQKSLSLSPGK
light: DIQMTQSPSSVSASVGDRVTITCRASQGIYSWLAWYQQKPGKAPNLLIYTASTLQSGVPSRFSGSGSGTDFTLTISSLQPEDFATYYCQQANIFPLTFGGGTKVEIKRTVAAPSVFIFPPSDEQLKSGTASVVCLLNNFYPREAKVQWKVDNALQSGNSQESVTEQDSKDSTYSLSSTLTLSKADYEKHKVYACEVTHQGLSSPVTKSFNRGECGGGGSGGGGSGGGGSGGGGSDIQMTQSPSSLSASVGDRVTITCRASQDIRSNLNWYQQKPGGAVKLLIYYTSRLHSGVPSRFSGSGSGTDYTLTISSLQPEDFATYFCQQSEKLPRTFGGGTKVEIRGGGGSGGGGSGGGGSGGGGSQVQLVQSGAEVKKPGASVKVSCKASGYTFAGFEMHWVRQAPGQGLEWMGAIDPKTGGTDYNQKFKDRVTMTRDTSISTAYMELSRLRSDDTAVYYCARDLGYFDVWGQGTLVTVSS
notes: Anti-CD40/CD137: Ly253-derived heavy chain; Ly253 light chain fused to Ly1630 scFv (VL-VH)

- EC50 (read off the curve) [1]: ~0.04 µg/mL
- binding result [2]: binds
B3: Ly741 (bispecific antibody, human IgG1, kappa)
heavy: QVQLVQSGAEVKKPGASVKVSCKASGYTFAGFEMHWVRQAPGQGLEWMGAIDPKTGGTDYNQKFKDRVTMTRDTSISTAYMELSRLRSDDTAVYYCARDLGYFDVWGQGTLVTVSSASTKGPSVFPLAPSSKSTSGGTAALGCLVKDYFPEPVTVSWNSGALTSGVHTFPAVLQSSGLYSLSSVVTVPSSSLGTQTYICNVNHKPSNTKVDKKVEPKSCDKTHTCPPCPAPELLGPSVFLFPPKPKDTLMISRTPEVTCVVVDVSHEDPEVKFNWYVDGVEVHNAKTKPREEQYNSTYRVVSVLTVLHQDWLNGKEYKCKVSNKALPAPIEKTISKAKGQPREPQVYTLPPSREEMTKNQVSLTCLVKGFYPSDIAVEWESNGQPENNYKTTPPVLDSDGSFFLYSKLTVDKSRWQQGNVFSCSVMHEALHNHYTQKSLSLSPGK
light: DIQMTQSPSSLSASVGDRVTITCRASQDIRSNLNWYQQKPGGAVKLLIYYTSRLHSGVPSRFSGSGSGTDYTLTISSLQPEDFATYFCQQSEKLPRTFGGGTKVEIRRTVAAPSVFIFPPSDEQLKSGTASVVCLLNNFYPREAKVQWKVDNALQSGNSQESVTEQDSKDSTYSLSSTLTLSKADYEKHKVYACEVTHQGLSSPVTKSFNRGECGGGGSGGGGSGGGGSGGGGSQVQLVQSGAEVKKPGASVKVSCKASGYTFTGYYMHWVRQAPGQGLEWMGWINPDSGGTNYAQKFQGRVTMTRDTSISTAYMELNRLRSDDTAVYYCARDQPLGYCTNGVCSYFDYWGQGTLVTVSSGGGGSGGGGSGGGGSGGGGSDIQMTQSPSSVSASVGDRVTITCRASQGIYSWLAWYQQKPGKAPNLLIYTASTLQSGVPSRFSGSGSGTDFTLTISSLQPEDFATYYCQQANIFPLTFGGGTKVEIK
notes: Anti-CD40/CD137: Ly1630 heavy chain; Ly1630 light chain fused to Ly253 scFv (VH-VL)

- EC50 (read off the curve) [3]: ~0.2 µg/mL
- EC50 (read off the curve) [4]: ~0.2 µg/mL
- EC50 (read off the curve) [5]: ~0.02 µg/mL
B5: Ly458 (bispecific antibody, human IgG1, kappa)
heavy: QVTLKESGPALVKPTQTLTLTCTFSGFSLSTSGTCVSWIRQPPGKALEWLATICWEDSKGYNPSLKSRLTISKDTSKNQAVLTMTNMDPVDTATYYCARREDSGYFWFPYWGQGTLVTVSSASTKGPSVFPLAPSSKSTSGGTAALGCLVKDYFPEPVTVSWNSGALTSGVHTFPAVLQSSGLYSLSSVVTVPSSSLGTQTYICNVNHKPSNTKVDKKVEPKSCDKTHTCPPCPAPELLGPSVFLFPPKPKDTLMISRTPEVTCVVVDVSHEDPEVKFNWYVDGVEVHNAKTKPREEQYNSTYRVVSVLTVLHQDWLNGKEYKCKVSNKALPAPIEKTISKAKGQPREPQVYTLPPSREEMTKNQVSLTCLVKGFYPSDIAVEWESNGQPENNYKTTPPVLDSDGSFFLYSKLTVDKSRWQQGNVFSCSVMHEALHNHYTQKSLSLSPGK
light: NIQMTQSPSSLSASVGDRVTITCKAGQNVNNYLAWYQQKPGKAPKVLIFNANSLQTGVPSRFSGSGSGTDFTLTISSLQPEDFATYYCQQYNSWPTFGGGTKVEIKRTVAAPSVFIFPPSDEQLKSGTASVVCLLNNFYPREAKVQWKVDNALQSGNSQESVTEQDSKDSTYSLSSTLTLSKADYEKHKVYACEVTHQGLSSPVTKSFNRGECGGGGSGGGGSGGGGSGGGGSDIQMTQSPSSLSASVGDRVTITCRASQDIRSNLNWYQQKPGGAVKLLIYYTSRLHSGVPSRFSGSGSGTDYTLTISSLQPEDFATYFCQQSEKLPRTFGGGTKVEIRGGGGSGGGGSGGGGSGGGGSQVQLVQSGAEVKKPGASVKVSCKASGYTFAGFEMHWVRQAPGQGLEWMGAIDPKTGGTDYNQKFKDRVTMTRDTSISTAYMELSRLRSDDTAVYYCARDLGYFDVWGQGTLVTVSS
notes: Anti-PD-1/CD137: Ly516 heavy chain; Ly516 light chain fused to Ly1630 scFv (VL-VH)

- EC50 (read off the curve) [3]: ~0.2 µg/mL
- EC50 (read off the curve) [4]: ~0.2 µg/mL
- EC50 (read off the curve) [5]: ~0.02 µg/mL
B6: Ly459 (bispecific antibody, human IgG1, kappa)
heavy: B5 heavy
light: NIQMTQSPSSLSASVGDRVTITCKAGQNVNNYLAWYQQKPGKAPKVLIFNANSLQTGVPSRFSGSGSGTDFTLTISSLQPEDFATYYCQQYNSWPTFGGGTKVEIKRTVAAPSVFIFPPSDEQLKSGTASVVCLLNNFYPREAKVQWKVDNALQSGNSQESVTEQDSKDSTYSLSSTLTLSKADYEKHKVYACEVTHQGLSSPVTKSFNRGECGGGGSGGGGSGGGGSGGGGSQVQLVQSGAEVKKPGASVKVSCKASGYTFAGFEMHWVRQAPGQGLEWMGAIDPKTGGTDYNQKFKDRVTMTRDTSISTAYMELSRLRSDDTAVYYCARDLGYFDVWGQGTLVTVSSGGGGSGGGGSGGGGSGGGGSDIQMTQSPSSLSASVGDRVTITCRASQDIRSNLNWYQQKPGGAVKLLIYYTSRLHSGVPSRFSGSGSGTDYTLTISSLQPEDFATYFCQQSEKLPRTFGGGTKVEIR
notes: Anti-PD-1/CD137: Ly516 heavy chain; Ly516 light chain fused to Ly1630 scFv (VH-VL)

The remaining lines, values behind:

B2: Ly740 (bispecific antibody, human IgG1, kappa)
heavy: B3 heavy
light: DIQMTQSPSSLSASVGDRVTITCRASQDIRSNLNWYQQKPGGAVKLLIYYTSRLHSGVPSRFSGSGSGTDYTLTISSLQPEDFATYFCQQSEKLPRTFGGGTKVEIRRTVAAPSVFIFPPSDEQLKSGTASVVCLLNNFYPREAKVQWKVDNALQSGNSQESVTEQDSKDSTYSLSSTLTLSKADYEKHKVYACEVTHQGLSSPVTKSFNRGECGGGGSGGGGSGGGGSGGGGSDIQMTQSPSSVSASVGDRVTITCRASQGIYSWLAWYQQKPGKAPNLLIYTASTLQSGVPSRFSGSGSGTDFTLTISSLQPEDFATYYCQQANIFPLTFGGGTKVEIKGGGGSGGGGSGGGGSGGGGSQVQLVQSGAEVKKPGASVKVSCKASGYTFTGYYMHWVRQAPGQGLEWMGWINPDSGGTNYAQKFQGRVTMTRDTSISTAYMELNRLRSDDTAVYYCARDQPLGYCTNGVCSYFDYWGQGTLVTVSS
notes: Anti-CD40/CD137: Ly1630 heavy chain; Ly1630 light chain fused to Ly253 scFv (VL-VH)
- EC50 (read off the curve) [1]: ~0.04 µg/mL
- binding result [2]: binds

B4: Ly745 (bispecific antibody, human IgG1, kappa)
heavy: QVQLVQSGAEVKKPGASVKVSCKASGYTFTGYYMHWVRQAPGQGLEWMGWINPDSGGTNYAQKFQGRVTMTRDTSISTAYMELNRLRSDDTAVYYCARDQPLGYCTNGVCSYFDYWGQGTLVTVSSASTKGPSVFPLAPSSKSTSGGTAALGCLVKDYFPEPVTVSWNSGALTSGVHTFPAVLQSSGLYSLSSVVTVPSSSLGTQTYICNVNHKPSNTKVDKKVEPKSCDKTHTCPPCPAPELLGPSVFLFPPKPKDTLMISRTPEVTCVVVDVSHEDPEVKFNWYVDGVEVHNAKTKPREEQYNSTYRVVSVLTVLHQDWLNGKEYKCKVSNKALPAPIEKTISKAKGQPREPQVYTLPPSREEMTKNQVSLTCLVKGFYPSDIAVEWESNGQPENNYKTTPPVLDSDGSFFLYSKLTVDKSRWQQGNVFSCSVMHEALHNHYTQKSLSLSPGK
light: DIQMTQSPSSVSASVGDRVTITCRASQGIYSWLAWYQQKPGKAPNLLIYTASTLQSGVPSRFSGSGSGTDFTLTISSLQPEDFATYYCQQANIFPLTFGGGTKVEIKRTVAAPSVFIFPPSDEQLKSGTASVVCLLNNFYPREAKVQWKVDNALQSGNSQESVTEQDSKDSTYSLSSTLTLSKADYEKHKVYACEVTHQGLSSPVTKSFNRGECGGGGSGGGGSGGGGSGGGGSQVQLVQSGAEVKKPGASVKVSCKASGYTFAGFEMHWVRQAPGQGLEWMGAIDPKTGGTDYNQKFKDRVTMTRDTSISTAYMELSRLRSDDTAVYYCARDLGYFDVWGQGTLVTVSSGGGGSGGGGSGGGGSGGGGSDIQMTQSPSSLSASVGDRVTITCRASQDIRSNLNWYQQKPGGAVKLLIYYTSRLHSGVPSRFSGSGSGTDYTLTISSLQPEDFATYFCQQSEKLPRTFGGGTKVEIR
notes: Anti-CD40/CD137: Ly253-derived heavy chain; Ly253 light chain fused to Ly1630 scFv (VH-VL)
- EC50 (read off the curve) [1]: ~0.2 µg/mL
- binding result [2]: binds

B7: Ly742 (bispecific antibody, human IgG1, kappa)
heavy: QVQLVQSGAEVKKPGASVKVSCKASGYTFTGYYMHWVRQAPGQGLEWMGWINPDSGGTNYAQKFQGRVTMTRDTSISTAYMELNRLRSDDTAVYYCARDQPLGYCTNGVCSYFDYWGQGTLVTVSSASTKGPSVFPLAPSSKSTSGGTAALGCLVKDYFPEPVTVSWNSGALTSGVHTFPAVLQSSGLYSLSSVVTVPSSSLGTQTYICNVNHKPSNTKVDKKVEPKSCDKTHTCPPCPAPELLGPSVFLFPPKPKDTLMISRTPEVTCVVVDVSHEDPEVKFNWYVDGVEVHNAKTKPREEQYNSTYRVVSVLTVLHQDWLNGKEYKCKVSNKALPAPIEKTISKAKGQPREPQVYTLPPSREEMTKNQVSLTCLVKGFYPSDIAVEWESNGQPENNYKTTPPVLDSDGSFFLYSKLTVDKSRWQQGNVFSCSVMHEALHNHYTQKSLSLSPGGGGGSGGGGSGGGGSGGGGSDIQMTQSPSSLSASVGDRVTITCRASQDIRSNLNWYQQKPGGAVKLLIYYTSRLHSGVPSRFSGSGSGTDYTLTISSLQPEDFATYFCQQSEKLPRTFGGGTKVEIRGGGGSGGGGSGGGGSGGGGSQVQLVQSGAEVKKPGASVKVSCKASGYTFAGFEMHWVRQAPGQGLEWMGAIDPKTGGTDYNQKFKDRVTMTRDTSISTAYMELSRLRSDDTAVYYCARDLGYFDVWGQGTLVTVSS
light: DIQMTQSPSSVSASVGDRVTITCRASQGIYSWLAWYQQKPGKAPNLLIYTASTLQSGVPSRFSGSGSGTDFTLTISSLQPEDFATYYCQQANIFPLTFGGGTKVEIKRTVAAPSVFIFPPSDEQLKSGTASVVCLLNNFYPREAKVQWKVDNALQSGNSQESVTEQDSKDSTYSLSSTLTLSKADYEKHKVYACEVTHQGLSSPVTKSFNRGEC
notes: Anti-CD40/CD137: Ly253-derived heavy chain fused to Ly1630 scFv (VL-VH); Ly253 light chain
- EC50 (read off the curve) [1]: ~0.07 µg/mL
- binding result [2]: binds

B8: Ly743 (bispecific antibody, human IgG1, kappa)
heavy: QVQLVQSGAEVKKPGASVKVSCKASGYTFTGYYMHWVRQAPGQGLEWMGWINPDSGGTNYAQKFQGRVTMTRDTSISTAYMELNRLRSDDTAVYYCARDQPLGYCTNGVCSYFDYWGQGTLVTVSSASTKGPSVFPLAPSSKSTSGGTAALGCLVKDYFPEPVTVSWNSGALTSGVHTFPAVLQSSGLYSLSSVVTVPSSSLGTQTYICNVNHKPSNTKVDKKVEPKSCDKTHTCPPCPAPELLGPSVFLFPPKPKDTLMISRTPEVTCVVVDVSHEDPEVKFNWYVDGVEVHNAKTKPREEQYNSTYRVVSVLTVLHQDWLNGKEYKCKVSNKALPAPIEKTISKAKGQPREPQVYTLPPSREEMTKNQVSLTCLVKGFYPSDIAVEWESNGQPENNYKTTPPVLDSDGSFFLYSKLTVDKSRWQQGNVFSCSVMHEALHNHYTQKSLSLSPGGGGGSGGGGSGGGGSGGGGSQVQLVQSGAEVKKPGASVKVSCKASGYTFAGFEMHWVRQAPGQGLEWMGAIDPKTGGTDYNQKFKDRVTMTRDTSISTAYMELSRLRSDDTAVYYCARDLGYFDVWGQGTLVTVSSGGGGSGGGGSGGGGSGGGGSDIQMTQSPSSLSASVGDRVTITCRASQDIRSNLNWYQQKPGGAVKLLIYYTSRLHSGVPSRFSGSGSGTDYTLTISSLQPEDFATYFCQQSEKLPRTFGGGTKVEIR
light: B7 light
notes: Anti-CD40/CD137: Ly253-derived heavy chain fused to Ly1630 scFv (VH-VL); Ly253 light chain
- EC50 (read off the curve) [1]: ~0.1 µg/mL
- binding result [2]: binds
